Test results published in the Human Domainome abundance scans (Beltran et al. 2025).
± gives the uncertainty stated by the source.

B1: Retinoic acid receptor RXR-alpha, residues 132 to 208; numbered along this chain, P19793 (parent)
chain: KHICAICGDRSSGKHYGVYSCEGCKGFFKRTVRKDLTYTCRDNKDCLIDKRQRNRCQYCRYQKCLAMGMKREAVQEE

Variants of: B1
Experiment: abundance fitness (aPCA) (normalised: wild type 0, dead -1); higher = more abundant; growth selection in yeast, the domain comes from the species named
Conditions: Homo sapiens

Abundance fitness, by site and new letter:
L36: D 0.053 ± 0.046, Y -0.055 ± 0.073, G 0.022 ± 0.026, R 0.008 ± 0.03, A 0.031 ± 0.04, E 0.021 ± 0.039, K -0.018 ± 0.052, F 0.046 ± 0.057, Q 0.005 ± 0.051, H 0.014 ± 0.06, P -0.067 ± 0.059, C 0.087 ± 0.053, V 0.009 ± 0.032, M -0.061 ± 0.043, N -0.024 ± 0.075, T -0.028 ± 0.049, W -0.028 ± 0.037
I48: A -0.05 ± 0.041, W 0.007 ± 0.041, K 0.094 ± 0.13, M 0.03 ± 0.052, T 0 ± 0.057, L 0.016 ± 0.038, E -0.162 ± 0.083, S -0.04 ± 0.041, D -0.031 ± 0.15, F -0.108 ± 0.09, N 0.065 ± 0.15, H 0.061 ± 0.19, C -0.035 ± 0.057, P -0.007 ± 0.074, Y -0.342 ± 0.14, G -0.007 ± 0.029, V 0.051 ± 0.033, Q 0.21 ± 0.097, R -0.02 ± 0.031
R33: V 0.018 ± 0.029, P -0.143 ± 0.034, I 0.004 ± 0.034, Y -0.158 ± 0.042, M -0.003 ± 0.039, K 0.05 ± 0.041, G -0.014 ± 0.031, W -0.002 ± 0.043, F -0.033 ± 0.034, L -0.096 ± 0.028, C -0.287 ± 0.04, S -0.074 ± 0.028, T -0.012 ± 0.032, A 0.038 ± 0.035, E 0.044 ± 0.044, D -0.005 ± 0.04, N -0.017 ± 0.035
L47: P -0.045 ± 0.054, G 0.016 ± 0.027, I -0.002 ± 0.065, S -0.122 ± 0.038, N -0.098 ± 0.076, K -0.062 ± 0.061, V -0.008 ± 0.033, W 0.005 ± 0.035, F 0.011 ± 0.061, Y -0.03 ± 0.062, R -0.109 ± 0.029, A 0.005 ± 0.035, Q -0.095 ± 0.071, T 0.012 ± 0.049, M -0.048 ± 0.044, H -0.016 ± 0.079, E 0.004 ± 0.041, D -0.072 ± 0.055
N43: D -0.181 ± 0.12, R -0.003 ± 0.03, Q -0.099 ± 0.052, Y -0.043 ± 0.061, V 0.013 ± 0.037, A 0.008 ± 0.039, K 0.1 ± 0.052, H 0.066 ± 0.082, S 0.019 ± 0.042, I 0.019 ± 0.075, P -0.065 ± 0.052, L -0.009 ± 0.036, G 0.053 ± 0.031, T 0.049 ± 0.046, F -0.071 ± 0.068, W -0.008 ± 0.042, C -0.115 ± 0.059, E 0.053 ± 0.04, M 0.02 ± 0.048
R30: E -0.041 ± 0.041, W -0.167 ± 0.042, A -0.162 ± 0.041, V -0.353 ± 0.038, Q -0.129 ± 0.049, H -0.252 ± 0.098, S -0.158 ± 0.037, C -0.41 ± 0.061, D -0.008 ± 0.064, G -0.087 ± 0.029, K 0.073 ± 0.056, I -0.352 ± 0.07, F -0.362 ± 0.11, P -0.554 ± 0.072, L -0.178 ± 0.04, T -0.124 ± 0.041, M -0.141 ± 0.048
D49: K 0.026 ± 0.076, V 0.036 ± 0.044, P -0.018 ± 0.077, H -0.011 ± 0.19, F -0.109 ± 0.24, Q 0.036 ± 0.076, R -0.183 ± 0.04, I 0.069 ± 0.1, N 0.048 ± 0.065, T -0.07 ± 0.093, S -0.037 ± 0.053, Y -0.183 ± 0.18, W 0.06 ± 0.049, C -0.117 ± 0.075, E -0.005 ± 0.058, L -0.102 ± 0.049, G 0.07 ± 0.035, A 0.009 ± 0.044
K29: W 0.003 ± 0.036, I -0.163 ± 0.06, E 0.028 ± 0.037, M 0.038 ± 0.041, P -0.531 ± 0.08, A 0.05 ± 0.036, F -0.035 ± 0.065, G 0.025 ± 0.028, R -0.003 ± 0.03, V 0.054 ± 0.033, N 0.027 ± 0.053, L 0.009 ± 0.037, C -0.223 ± 0.059, T 0.021 ± 0.04, H -0.074 ± 0.071, D -0.013 ± 0.053, S -0.059 ± 0.039
C46: A -0.142 ± 0.04, Q -0.288 ± 0.067, L -0.378 ± 0.044, Y -0.383 ± 0.086, M -0.206 ± 0.046, E -0.189 ± 0.046, K -0.207 ± 0.052, G -0.186 ± 0.029, S -0.274 ± 0.04, F -0.291 ± 0.087, V -0.193 ± 0.036, D -0.035 ± 0.069, I -0.436 ± 0.099, P -0.155 ± 0.045, R -0.301 ± 0.035, N -0.22 ± 0.077
D45: K 0.058 ± 0.047, R 0.001 ± 0.03, I -0.123 ± 0.13, L -0.062 ± 0.064, W -0.025 ± 0.035, Y -0.062 ± 0.063, P -0.078 ± 0.057, S -0.029 ± 0.035, F -0.104 ± 0.066, T -0.051 ± 0.051, M -0.404 ± 0.19, N -0.034 ± 0.061, H -0.066 ± 0.077, E 0.043 ± 0.037, C -0.049 ± 0.055, V -0.021 ± 0.071
F28: Y -0.13 ± 0.065
D35: G -0.028 ± 0.25, N -0.164 ± 0.12, Y -0.131 ± 0.21
R41: Y -0.002 ± 0.032, P 0.059 ± 0.029, W -0.007 ± 0.057, H 0.06 ± 0.033, G 0.095 ± 0.04, F 0.032 ± 0.031, K 0.026 ± 0.05, T 0.035 ± 0.029, L -0.091 ± 0.026, C 0.096 ± 0.035, V -0.01 ± 0.031, E 0.14 ± 0.05, Q 0.041 ± 0.043, M 0.018 ± 0.039, D 0.056 ± 0.038, N -0.05 ± 0.032, I 0.041 ± 0.033
T31: K -0.233 ± 0.044, L -0.136 ± 0.025, E -0.188 ± 0.038, M 0 ± 0.038, S -0.02 ± 0.026, I -0.092 ± 0.034, P -0.641 ± 0.059, R -0.504 ± 0.033, V -0.003 ± 0.027, C -0.005 ± 0.032, W -0.043 ± 0.034, Y -0.094 ± 0.035, F -0.078 ± 0.035, H -0.132 ± 0.037, A -0.03 ± 0.026, Q -0.079 ± 0.039, N -0.114 ± 0.034
K50: G 0.015 ± 0.031, P -0.029 ± 0.051, E -0.077 ± 0.052, T -0.099 ± 0.065, D 0.019 ± 0.06, Q 0.047 ± 0.06, A 0.037 ± 0.042, S -0.108 ± 0.05, W -0.107 ± 0.047, F -0.008 ± 0.095, R -0.026 ± 0.037, C -0.153 ± 0.066, H -0.029 ± 0.072, N 0.124 ± 0.074, I -0.026 ± 0.077, Y -0.092 ± 0.078, V 0.052 ± 0.04, M 0.043 ± 0.065
C40: N -0.732 ± 0.15, A -0.602 ± 0.054, T -0.643 ± 0.082, P -0.591 ± 0.082, K -0.504 ± 0.078, D -0.314 ± 0.083, E -0.405 ± 0.056, W -0.832 ± 0.089, M -0.621 ± 0.088, G -0.815 ± 0.052, L -0.454 ± 0.05, H -0.09 ± 0.077, Q -0.707 ± 0.1, V -0.737 ± 0.056, I -0.697 ± 0.15, R -0.659 ± 0.053
V32: N 0.015 ± 0.036, P -0.298 ± 0.036, W -0.211 ± 0.037, K -0.012 ± 0.039, T 0.024 ± 0.029, A -0.013 ± 0.026, G -0.046 ± 0.024, I -0.083 ± 0.033, H -0.064 ± 0.032, S -0.085 ± 0.026, Q -0.017 ± 0.041, Y -0.079 ± 0.035, E 0.026 ± 0.032, F 0 ± 0.034, R -0.171 ± 0.026
D42: G 0.091 ± 0.34, N 0.02 ± 0.11
K44: A 0.001 ± 0.038, Q -0.04 ± 0.05, H -0.086 ± 0.078, D 0.092 ± 0.056, M -0.03 ± 0.036, N 0.025 ± 0.059, L -0.083 ± 0.035, C -0.025 ± 0.052, V -0.035 ± 0.031, F -0.024 ± 0.073, R -0.019 ± 0.03, P -0.022 ± 0.054, Y -0.119 ± 0.098, S -0.011 ± 0.035, G 0.052 ± 0.028, I 0.05 ± 0.066, T 0.057 ± 0.046, E -0.033 ± 0.04
T37: W -0.051 ± 0.041, A 0.026 ± 0.037, K 0.066 ± 0.041, V 0.035 ± 0.033, I -0.016 ± 0.064, S -0.025 ± 0.035, R -0.039 ± 0.028, C 0.074 ± 0.051, G 0.047 ± 0.026, F -0.046 ± 0.067, M -0.147 ± 0.049, Q 0.059 ± 0.049, N 0.001 ± 0.058, D 0.082 ± 0.058, P 0.064 ± 0.056, E 0.052 ± 0.035, L -0.05 ± 0.034, H 0.053 ± 0.052, Y -0.082 ± 0.066
Y38: L 0.012 ± 0.036, E -0.063 ± 0.04, C -0.353 ± 0.061, T 0.036 ± 0.047, A -0.061 ± 0.035, I -0.041 ± 0.067, N -0.101 ± 0.065, Q -0.041 ± 0.045, V 0.001 ± 0.031, W -0.086 ± 0.036, D -0.115 ± 0.054, F 0.078 ± 0.071, S -0.031 ± 0.039, P 0.04 ± 0.05, R -0.11 ± 0.031, H 0.027 ± 0.071
T39: V 0.05 ± 0.03, M 0.046 ± 0.041, I 0.099 ± 0.052, L -0.052 ± 0.033, Q -0.033 ± 0.046, D 0.045 ± 0.062, R 0.008 ± 0.03, W -0.009 ± 0.039, P 0.027 ± 0.05, H 0.134 ± 0.092, G 0.045 ± 0.027, K 0.027 ± 0.044, Y 0.006 ± 0.093, E 0.048 ± 0.037, C 0.04 ± 0.051, A -0.015 ± 0.037, S 0.03 ± 0.036, N 0.03 ± 0.07
